In paper PMC11937253 one finds Kd, koff and kon data, which are given here for 19 molecules.

B1: Nanobody B6R-03 (VHH)
VHH: QVQLVESGGGLVQAGGSLRLSCAASGRILHRKGMGWYRQAPGKEREFVAAINKGGSTNYADSVKGRFTISRDNAKNTVYLQMNSLKPEDTAVYYCAVGKKRRTWINRHYDYWGQGTQVTVSS
B2: Nanobody B6R-06 (VHH)
VHH: QVQLVESGGGLVQAGGSLRLSCAASGRIFRKRNMGWYRQAPGKEREFVASISRGSNTYYADSVKGRFTISRDNAKNTVYLQMNSLKPEDTAVYYCAVWRHRTFVRWKHFDYWGQGTQVTVSS
B3: Nanobody B6R-02 (VHH)
VHH: QVQLVESGGGLVQAGGSLRLSCAASGRIFRRNVMGWYRQAPGKEREFVAAITKGGYTNYADSVKGRFTISRDNAKNTVYLQMNSLKPEDTAVYYCAARYFHRKRHKWRHDYWGQGTQVTVSS
B4: Nanobody B6R-04 (VHH)
VHH: QVQLVESGGGLVQAGGSLRLSCAASGRIFASDRMGWYRQAPGKEREFVAAISYGSRTNYADSVKGRFTISRDNAKNTVYLQMNSLKPEDTAVYYCAVWAFHRSWKERSHWHDYWGQGTQVTVSS
B5: Nanobody B6R-05 (VHH)
VHH: QVQLVESGGGLVQAGGSLRLSCAASGRIFHPGAMGWYRQAPGKEREFVAGISSGGNTYYADSVKGRFTISRDNAKNTVYLQMNSLKPEDTAVYYCAAPFRWVKATGRFLDYWGQGTQVTVSS
B6: Nanobody E8L-02 (VHH)
VHH: QVQLVESGGGLVQAGGSLRLSCAASGRIFTDSYMGWYRQAPGKEREFVACITTGSSTYYADSVKGRFTISRDNAKNTVYLQMNSLKPEDTAVYYCAARFRYTVQHWFHTKFDYWGQGTQVTVSS
B7: Nanobody E8L-03 (VHH)
VHH: QVQLVESGGGLVQAGGSLRLSCAASGFIFTTRGMGWYRQAPGKEREFVACIFPGSSTNYADSVKGRFTISRDNAKNTVYLQMNSLKPEDTAVYYCAAEGPYRGFNFKKNLYDYWGQGTQVTVSS
B8: Nanobody E8L-08 (VHH)
VHH: QVQLVESGGGLVQAGGSLRLSCAASGFIFTNWGMGWYRQAPGKERELVAAITSGSSTNYADSVKGRFTISRDNAKNTVYLQMNSLKPEDTAVYYCAAIRGFSLIYQFFAQYDYWGQGTQVTVSS
B9: Nanobody E8L-05 (VHH)
VHH: QVQLVESGGGLVQAGGSLRLSCAASGRIFDTVEMGWYRQAPGKEREFVASISGGDSTYYADSVKGRFTISRDNAKNTVYLQMNSLKPEDTAVYYCAARSARNRWSIIFYDYWGQGTQVTVSS
B10: Nanobody E8L-07 (VHH)
VHH: QVQLVESGGGLVQAGGSLRLSCAASGSIFKRYKMGWYRQAPGKEREFVACINKGGDTNYADSVKGRFTISRDNAKNTVYLQMNSLKPEDTAVYYCAVKRHAKAYGEFFYDYWGQGTQVTVSS
B11: Nanobody E8L-01 (VHH)
VHH: QVQLVESGGGLVQAGGSLRLSCAASGRIFINRVMGWYRQAPGKEREFVAGIAQGGSTNYADSVKGRFTISRDNAKNTVYLQMNSLKPEDTAVYYCAAKFWNWHHDHRGYDYWGQGTQVTVSS
B12: Nanobody E8L-06 (VHH)
VHH: QVQLVESGGGLVQAGGSLRLSCAASGFIFTSTRMGWYRQAPGKEREFVAGISIGGNTNYADSVKGRFTISRDNAKNTVYLQMNSLKPEDTAVYYCAARYYYFHNHNFAYDYWGQGTQVTVSS
B13: Nanobody E8L-04 (VHH)
VHH: QVQLVESGGGLVQAGGSLRLSCAASGRIFGRRAMGWYRQAPGKEREFVAAISNGFNTNYADSVKGRFTISRDNAKNTVYLQMNSLKPEDTAVYYCAATVSRRGEQTFFYDYWGQGTQVTVSS
B14: Nanobody H3L-01 (VHH)
VHH: QVQLVESGGGLVQAGGSLRLSCAASGRIFWWVPMGWYRQAPGKEREFVAGISKGDSTYYADSVKGRFTISRNNAKNTVYLQMNSLKPEDTAVYYCAANPRNNRFRAGVYDYWGQGTQVTVSS
B15: Nanobody H3L-03 (VHH)
VHH: QVQLVESGGGLVQAGGSLRLSCAASGRIFFFAKMGWYRQAPGKEREFVASIVYGDITYYADSVKGRFTISRDNAKNTVYLQMNSLKPEDTAVYYCAAKPHWPSRRPRRYDYWGQGTQVTVSS
B16: Nanobody H3L-02 (VHH)
VHH: QVQLVESGGGLVQAGGSLRLSCAASGRIFLHRIMGWYRQAPGKERELVASISRGDNTYYADSVKGRFTISRDNAKNTVYLQMNSLKPEDTAVYYCAAGTGRHKDDHKDYDYWGQGTQVTVSS
B17: Nanobody M1R-03 (VHH)
VHH: QVQLVESGGGLVQAGGSLRLSCAASGSIFETGAMGWYRQAPGKEREFVAAITGWDTNYADSVKGRFTISRDNAKNTVYLQMNSLKPEDTAVYYCAASHWISFYWEHYHPYDYWGQGTQVTVSS
B18: Nanobody M1R-02 (VHH)
VHH: QVQLVESGGGLVQAGGSLRLSCAASGFIFDHWEMGWYRQAPGKEREFVASISAGLSTNYADSVKGRFTISRDNAKNTVYLQMNSLKPEDTAVYYCAARHFTAVFWKNSYDYWGQGTQVTVSS
B19: Nanobody M1R-05 (VHH)
VHH: QVQLVESGGGLVQAGGSLRLSCAASGFIFYAWHMGWYRQAPGKERELVASIAYGGDTNYADSVKGRFTISRDNAKNTVYLQMNSLKPEDTAVYYCAAVHFTHHKWDQEYDYWGQGTQVTVSS

Usually Kd stands for the free concentration of one partner at which half of the binding sites on the other are occupied at equilibrium, for simple one-to-one binding. What is called koff is the first-order rate constant of dissociation. By kon is commonly meant the rate constant with which the complex forms.

The target of one assay is MPXV B6R ectodomain, His-tagged recombinant protein (mpox virus (MPXV), isolate MPXV_USA_2022_MA001). The assay is described as follows: SPR; BiaCore T200; […]; 1:1 binding model. For orientation: In SPR one partner is held on a chip, and binding of the other changes the refractive index at the surface.
For B1, the Kd was found to be 3180 nM, the off-rate (koff) amounted to 0.349 s⁻¹ and the on-rate (kon) worked out at 110000 M⁻¹ s⁻¹.
For B2, in that order: 12.1 nM, 0.0056 s⁻¹ and 462000 M⁻¹ s⁻¹.
Regarding B3, the Kd was determined as 14000 nM, the dissociation rate constant (koff) turned out to be 0.0029 s⁻¹ and the on-rate (kon) stood at 209 M⁻¹ s⁻¹.
As for B4, the equilibrium dissociation constant (Kd) was found to be 1030 nM, the dissociation rate constant (koff) came out at 0.0412 s⁻¹ and the kon came out at 39900 M⁻¹ s⁻¹.
The corresponding values for B5 are 95400 nM, 0.0008 s⁻¹ and 8.9 M⁻¹ s⁻¹.

The next assay addresses MPXV E8L ectodomain, His-tagged recombinant protein (mpox virus (MPXV), isolate MPXV_USA_2022_MA001). The assay is described as follows: SPR; BiaCore T200; […]; 1:1 binding model.
As for B6, the equilibrium dissociation constant (Kd) turned out to be 1.69 nM, the dissociation rate constant (koff) worked out at 0.0003 s⁻¹ and the on-rate constant (kon) was 184000 M⁻¹ s⁻¹.
With B7, the dissociation constant Kd was 5.81 nM, the koff stood at 0.0034 s⁻¹ and the on-rate (kon) is 662000 M⁻¹ s⁻¹.
The corresponding values for B8 are 3.11 nM, 0.002 s⁻¹ and 646000 M⁻¹ s⁻¹.
For B9, in that order: 2.39 nM, 0.002 s⁻¹ and 838000 M⁻¹ s⁻¹.
As for B10, the dissociation constant Kd was 3.17 nM, the koff was 0.0018 s⁻¹ and the on-rate constant (kon) came out at 539000 M⁻¹ s⁻¹.
Turning to B11, the Kd is 0.66 nM, the off-rate (koff) was 0.0029 s⁻¹ and the kon came out at 4.35e+06 M⁻¹ s⁻¹.
Consider B12, for which the Kd is 11.6 nM, the off-rate (koff) was found to be 0.0105 s⁻¹ and the kon came to 910000 M⁻¹ s⁻¹.
Take B13: the Kd was 1.77 nM, the koff is 0.0015 s⁻¹ and the kon turned out to be 876000 M⁻¹ s⁻¹.

For another assay, the target named is MPXV H3L ectodomain, His-tagged recombinant protein (mpox virus (MPXV), isolate MPXV_USA_2022_MA001). Nature of the assay: SPR; BiaCore T200; […]; 1:1 binding model.
Regarding B14, the dissociation constant Kd was determined as 11.2 nM, the koff was 0.0209 s⁻¹ and the kon worked out at 1.87e+06 M⁻¹ s⁻¹.
Consider B15, for which the dissociation constant (Kd) was determined as 35.2 nM, the koff came out at 0.0092 s⁻¹ and the kon was found to be 261000 M⁻¹ s⁻¹.
Consider B16, for which the Kd worked out at 94.8 nM, the koff stood at 0.0725 s⁻¹ and the kon was 765000 M⁻¹ s⁻¹.

The next assay has as its target MPXV M1R ectodomain, His-tagged recombinant protein (mpox virus (MPXV), isolate MPXV_USA_2022_MA001). Nature of the assay: SPR; BiaCore T200; […]; 1:1 binding model.
Take B17: the equilibrium dissociation constant (Kd) is 24.9 nM, the koff was 0.0401 s⁻¹ and the on-rate constant (kon) was 1.61e+06 M⁻¹ s⁻¹.
As to B18, the dissociation constant Kd came out at 23.5 nM, the koff amounted to 0.0016 s⁻¹ and the on-rate constant (kon) worked out at 68300 M⁻¹ s⁻¹.
With B19, the Kd was 85.9 nM, the koff turned out to be 0.0037 s⁻¹ and the kon turned out to be 42800 M⁻¹ s⁻¹.
